Test results taken from the supplement of paper PMC10065799, “High-throughput profiling of sequence recognition by tyrosine kinases and SH2 domains using bacterial peptide display” (eLife, 2023).

Key:
[1] = system: c-Abl (mouse); assay: phosphorylation enrichment, bacterial display (enrichment ratio); higher = better substrate or ligand; peptides without Tyr show the background
[2] = system: c-Src; assay: as above
[3] = target: EPHB1 (UniProt P54762); assay: as above
[4] = target: MERTK (UniProt Q12866); assay: as above
[5] = system: AncSZ; assay: as above
[6] = target: Jak2 (UniProt O60674); assay: as above
[7] = target: EPHB2 (UniProt P29323); assay: as above
[8] = target: Fyn (UniProt P06241); assay: as above
[9] = target: Hck (UniProt P08631); assay: as above
[10] = target: FGFR1 (UniProt P11362); assay: as above
[11] = system: Fer (mouse); assay: as above
[12] = target: Fes (UniProt P07332); assay: as above
[13] = target: FGFR3 (UniProt P22607); assay: as above
[14] = target: SHP2-C SH2; assay: SH2 binding enrichment of the phosphorylated peptide, bacterial display (enrichment ratio); higher = better substrate or ligand; peptides without Tyr show the background
[15] = target: Grb2 SH2 (UniProt P62993); assay: as above
[16] = target: c-Src SH2; assay: as above
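Wherever SH2 binding enrichment of the phosphorylated peptide, bacterial display is given: peptide library displayed on the E. coli surface as eCPX fusions, selected cells deep-sequenced, score is each peptide's frequency after selection divided by its frequency in the input.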
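Wherever phosphorylation enrichment, bacterial display is given: 11-residue human phosphosite peptides and single-mutation variants displayed on the E. coli surface, counted by deep sequencing, each peptide's frequency after selection divided by its frequency in the unselected input library; frequency after pTyr selection over input frequency; kinase dosed for 20-30% of maximal phosphorylation in three min.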

Sequence of Fyn (P06241 whole entry, looked up): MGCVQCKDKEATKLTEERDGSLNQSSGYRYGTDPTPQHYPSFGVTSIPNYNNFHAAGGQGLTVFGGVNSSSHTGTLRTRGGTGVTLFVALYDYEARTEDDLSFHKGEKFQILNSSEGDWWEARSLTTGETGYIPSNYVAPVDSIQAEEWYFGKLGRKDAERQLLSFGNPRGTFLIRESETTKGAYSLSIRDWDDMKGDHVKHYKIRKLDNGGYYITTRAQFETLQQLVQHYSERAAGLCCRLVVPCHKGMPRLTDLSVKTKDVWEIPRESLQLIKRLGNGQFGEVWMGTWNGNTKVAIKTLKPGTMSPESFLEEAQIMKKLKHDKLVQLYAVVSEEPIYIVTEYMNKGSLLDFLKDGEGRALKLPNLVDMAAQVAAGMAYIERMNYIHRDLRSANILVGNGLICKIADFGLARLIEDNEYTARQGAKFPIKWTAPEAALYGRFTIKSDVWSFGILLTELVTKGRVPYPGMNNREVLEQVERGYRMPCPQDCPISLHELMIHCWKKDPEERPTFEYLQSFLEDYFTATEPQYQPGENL
Sequence of MERTK (Q12866 whole entry, looked up): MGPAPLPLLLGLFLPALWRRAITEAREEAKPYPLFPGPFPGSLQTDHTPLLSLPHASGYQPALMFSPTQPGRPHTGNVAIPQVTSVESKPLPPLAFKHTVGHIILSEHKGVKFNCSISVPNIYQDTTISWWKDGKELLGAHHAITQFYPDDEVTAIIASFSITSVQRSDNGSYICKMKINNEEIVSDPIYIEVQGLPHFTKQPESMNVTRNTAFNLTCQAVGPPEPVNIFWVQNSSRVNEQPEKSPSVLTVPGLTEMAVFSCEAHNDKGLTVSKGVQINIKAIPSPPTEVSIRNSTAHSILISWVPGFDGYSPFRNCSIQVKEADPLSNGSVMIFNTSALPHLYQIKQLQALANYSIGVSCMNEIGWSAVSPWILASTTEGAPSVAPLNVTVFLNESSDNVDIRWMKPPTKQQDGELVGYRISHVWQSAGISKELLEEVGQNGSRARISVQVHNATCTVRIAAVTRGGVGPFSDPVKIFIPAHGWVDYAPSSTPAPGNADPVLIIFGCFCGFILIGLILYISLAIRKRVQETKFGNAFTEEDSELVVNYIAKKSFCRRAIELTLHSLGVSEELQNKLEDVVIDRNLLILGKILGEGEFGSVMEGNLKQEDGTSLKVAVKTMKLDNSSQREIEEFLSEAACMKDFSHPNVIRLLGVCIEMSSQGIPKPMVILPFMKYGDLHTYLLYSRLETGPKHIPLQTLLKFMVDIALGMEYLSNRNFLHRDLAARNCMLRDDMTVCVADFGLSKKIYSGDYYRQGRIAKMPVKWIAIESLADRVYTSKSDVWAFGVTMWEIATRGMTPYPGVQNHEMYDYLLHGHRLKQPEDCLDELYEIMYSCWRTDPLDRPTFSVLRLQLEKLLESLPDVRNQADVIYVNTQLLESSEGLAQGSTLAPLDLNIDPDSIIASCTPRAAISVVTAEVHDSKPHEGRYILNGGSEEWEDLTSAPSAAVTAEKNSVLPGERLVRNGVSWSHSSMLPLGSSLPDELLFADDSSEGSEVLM
Sequence of FGFR3 (P22607 whole entry, looked up): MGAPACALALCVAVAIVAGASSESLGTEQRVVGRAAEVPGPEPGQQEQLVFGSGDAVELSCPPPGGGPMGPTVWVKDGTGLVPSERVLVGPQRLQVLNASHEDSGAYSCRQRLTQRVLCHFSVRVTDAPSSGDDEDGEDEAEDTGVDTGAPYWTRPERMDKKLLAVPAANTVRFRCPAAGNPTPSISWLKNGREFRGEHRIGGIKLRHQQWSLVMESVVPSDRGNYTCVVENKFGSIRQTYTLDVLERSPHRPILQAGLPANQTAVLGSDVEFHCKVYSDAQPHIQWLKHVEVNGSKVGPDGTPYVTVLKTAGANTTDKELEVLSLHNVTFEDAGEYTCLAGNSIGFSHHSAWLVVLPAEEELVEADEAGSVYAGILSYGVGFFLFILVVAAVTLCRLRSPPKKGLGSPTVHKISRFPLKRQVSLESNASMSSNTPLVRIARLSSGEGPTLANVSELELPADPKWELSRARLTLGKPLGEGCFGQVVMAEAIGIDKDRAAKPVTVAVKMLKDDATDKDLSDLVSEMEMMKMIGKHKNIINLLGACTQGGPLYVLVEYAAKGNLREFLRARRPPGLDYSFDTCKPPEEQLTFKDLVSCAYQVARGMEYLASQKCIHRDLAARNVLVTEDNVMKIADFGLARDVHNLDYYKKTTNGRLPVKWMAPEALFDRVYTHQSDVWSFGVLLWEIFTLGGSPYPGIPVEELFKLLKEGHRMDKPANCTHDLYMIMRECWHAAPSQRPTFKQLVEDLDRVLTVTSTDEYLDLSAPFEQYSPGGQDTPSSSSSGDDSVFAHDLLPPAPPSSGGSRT
Sequence of EPHB2 (P29323 whole entry, looked up): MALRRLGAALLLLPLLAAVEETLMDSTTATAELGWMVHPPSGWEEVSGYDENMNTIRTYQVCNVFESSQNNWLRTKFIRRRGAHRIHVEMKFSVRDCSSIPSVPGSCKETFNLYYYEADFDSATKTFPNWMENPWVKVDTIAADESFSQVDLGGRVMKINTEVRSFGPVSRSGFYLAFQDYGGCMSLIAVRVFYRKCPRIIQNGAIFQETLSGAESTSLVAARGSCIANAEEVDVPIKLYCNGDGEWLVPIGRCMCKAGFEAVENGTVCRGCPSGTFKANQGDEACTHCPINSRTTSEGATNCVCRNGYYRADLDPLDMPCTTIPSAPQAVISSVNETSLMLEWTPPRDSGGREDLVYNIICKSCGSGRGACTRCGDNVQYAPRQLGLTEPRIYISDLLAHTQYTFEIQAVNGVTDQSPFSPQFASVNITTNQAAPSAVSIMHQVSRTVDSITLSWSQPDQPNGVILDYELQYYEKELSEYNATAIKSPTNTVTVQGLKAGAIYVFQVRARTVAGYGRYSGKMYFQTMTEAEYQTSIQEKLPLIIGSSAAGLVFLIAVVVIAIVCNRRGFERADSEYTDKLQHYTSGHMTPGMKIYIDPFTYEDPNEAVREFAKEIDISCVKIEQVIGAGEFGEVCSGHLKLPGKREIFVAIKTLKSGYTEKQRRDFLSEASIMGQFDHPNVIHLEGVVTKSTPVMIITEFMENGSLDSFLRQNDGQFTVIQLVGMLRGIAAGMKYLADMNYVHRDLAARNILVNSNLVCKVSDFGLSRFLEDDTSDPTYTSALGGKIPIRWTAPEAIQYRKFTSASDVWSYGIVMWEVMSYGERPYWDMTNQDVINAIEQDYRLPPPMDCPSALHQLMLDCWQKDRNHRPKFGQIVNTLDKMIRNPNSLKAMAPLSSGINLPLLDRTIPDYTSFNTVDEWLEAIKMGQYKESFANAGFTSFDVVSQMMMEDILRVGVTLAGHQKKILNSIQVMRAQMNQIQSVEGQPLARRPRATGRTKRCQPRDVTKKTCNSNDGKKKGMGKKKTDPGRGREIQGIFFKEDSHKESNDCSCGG
Sequence of EPHB1 (P54762 whole entry, looked up): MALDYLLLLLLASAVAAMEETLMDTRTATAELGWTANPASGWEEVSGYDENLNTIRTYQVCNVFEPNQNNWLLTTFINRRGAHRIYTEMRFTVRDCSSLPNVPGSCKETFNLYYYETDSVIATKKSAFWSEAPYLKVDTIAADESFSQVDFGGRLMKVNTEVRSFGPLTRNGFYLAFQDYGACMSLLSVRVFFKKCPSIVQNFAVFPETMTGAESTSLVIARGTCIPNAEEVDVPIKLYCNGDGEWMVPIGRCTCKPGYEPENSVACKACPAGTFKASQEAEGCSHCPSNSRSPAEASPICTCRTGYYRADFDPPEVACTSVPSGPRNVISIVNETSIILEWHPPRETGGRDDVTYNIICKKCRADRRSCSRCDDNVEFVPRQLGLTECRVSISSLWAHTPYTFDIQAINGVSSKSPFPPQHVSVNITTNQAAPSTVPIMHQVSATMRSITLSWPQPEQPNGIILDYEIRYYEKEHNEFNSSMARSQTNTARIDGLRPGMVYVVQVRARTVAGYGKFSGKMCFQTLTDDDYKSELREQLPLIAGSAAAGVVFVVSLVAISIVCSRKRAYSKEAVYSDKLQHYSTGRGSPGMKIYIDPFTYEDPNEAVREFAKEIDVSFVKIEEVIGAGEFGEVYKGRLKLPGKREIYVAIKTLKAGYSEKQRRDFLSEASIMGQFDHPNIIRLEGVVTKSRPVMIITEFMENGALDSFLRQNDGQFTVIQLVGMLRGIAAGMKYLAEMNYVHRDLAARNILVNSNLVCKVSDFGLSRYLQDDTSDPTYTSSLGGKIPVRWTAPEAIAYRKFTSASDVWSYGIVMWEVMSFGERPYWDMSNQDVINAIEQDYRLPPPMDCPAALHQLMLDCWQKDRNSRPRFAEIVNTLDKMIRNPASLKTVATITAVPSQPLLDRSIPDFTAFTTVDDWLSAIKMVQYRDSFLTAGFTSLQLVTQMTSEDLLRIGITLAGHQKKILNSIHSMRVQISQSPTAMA
Sequence of Hck (P08631 whole entry, looked up): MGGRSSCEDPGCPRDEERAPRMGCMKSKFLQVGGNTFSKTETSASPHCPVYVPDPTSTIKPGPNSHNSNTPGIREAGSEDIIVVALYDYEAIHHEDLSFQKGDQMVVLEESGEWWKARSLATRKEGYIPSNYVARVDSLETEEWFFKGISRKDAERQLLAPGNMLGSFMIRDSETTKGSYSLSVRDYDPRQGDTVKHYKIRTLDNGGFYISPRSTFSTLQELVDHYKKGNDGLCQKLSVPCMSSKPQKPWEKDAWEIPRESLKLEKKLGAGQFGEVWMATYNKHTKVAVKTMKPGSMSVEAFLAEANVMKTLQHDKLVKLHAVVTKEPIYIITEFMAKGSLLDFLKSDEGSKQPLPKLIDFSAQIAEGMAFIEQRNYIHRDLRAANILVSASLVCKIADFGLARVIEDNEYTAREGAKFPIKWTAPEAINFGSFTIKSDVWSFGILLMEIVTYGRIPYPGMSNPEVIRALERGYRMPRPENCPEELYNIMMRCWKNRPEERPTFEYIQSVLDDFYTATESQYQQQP

Sequence	SH2 binding enrichment [14]	SH2 binding enrichment [15]	SH2 binding enrichment [16]	phosphorylation enrichment [1]	phosphorylation enrichment [2]	phosphorylation enrichment [3]	phosphorylation enrichment [4]	phosphorylation enrichment [5]	phosphorylation enrichment [6]	phosphorylation enrichment [7]	phosphorylation enrichment [8]	phosphorylation enrichment [9]	phosphorylation enrichment [10]	phosphorylation enrichment [11]	phosphorylation enrichment [12]	phosphorylation enrichment [13]
PKSWNYELPAT [PROM1_Y34_A31S]	1.02	0.618	0.772	0.605	0.448	1.67	1.07	2.37	0.658	1.67	1.13	1.26	1.39	1.06	1.45	1.65
PLDGEYFTPQI [TP53_Y327_L330P]	0.725	0.816	0.45	12.9	0.434	1.53	0.474	6.68	0.978	1.91	0.89	0.733	3.09	0.482	1.34	2.19
PLQDVYKIGGI [EEF1A2_Y254]	0.574	1.03	0.429	1.92	4.34	2.02	0.522	1.01	1	0.572	2.3	1.04	0.505	0.679	0.981	0.793
PPSGEYFGHCG [TRIP6_Y275_Q278H]	0.713	1.06	0.599	0.904	0.509	0.85	0.529	1.69	0.999	1.02	0.698	0.983	0.698	0.668	1.38	1.18
PQDSAYHSGIQ [FLG_Y3940_S3935P]	0.613	0.787	0.437	1.69	0.553	0.652	0.445	0.651	0.598	0.49	0.459	0.486	0.534	0.419	0.755	0.522
PQEVMYAQLDH [KIR3DL2_Y398_T397M]	6.57	0.748	1.21	7.37	7.15	1.06	6.77	1.62	1.71	0.621	6.26	5.19	2.69	4.04	1.52	2.2
PRAEWYRDDLL [MYOM2_Y317_V321L]	0.716	1.15	0.686	0.798	0.575	0.692	0.511	1.49	0.952	0.726	0.612	0.681	0.591	0.502	1.4	0.626
PSDLLYILDIQ [ITGA2B_Y845]	0.492	1.19	0.571	1.17	4.22	1.07	2.82	2.77	2.24	1.06	2.82	1.57	1.35	1.32	2.33	1.91
PSRKDYETFQP [CTNND2_Y1154_YF]	0.372	0.884	0.645	0.907	0.737	1.04	0.572	1.22	1.11	1.52	0.605	0.73	0.558	0.473	1.21	0.667
PTKNDYWAMPA [WWOX_Y287_L291P]	0.669	0.732	0.586	1.39	0.952	18.6	5.26	2.02	2.69	14.4	0.987	1.82	20.6	0.469	1.03	16.3
PYRSIYFSSPK [MPG_Y75]	1.34	0.952	0.594	0.887	0.903	0.519	0.835	0.878	0.657	0.582	1.03	1.09	0.778	0.72	0.648	0.856
QCTSAYPLQPE [NANS_Y188]	1.09	1.06	0.594	2.7	0.728	0.719	0.682	1.51	1.65	0.813	0.832	0.623	0.616	0.675	1.46	0.942
QCTSDYPEHVC [SART3_Y541]	0.833	0.939	0.866	1.23	0.583	0.929	0.565	1.36	1.64	0.523	0.605	0.831	0.929	0.668	1.44	0.969
QDLRLYRPHLA [BTK_Y617_G613D]	0.555	0.728	0.581	0.571	0.474	0.517	0.363	0.578	1.17	0.467	0.505	0.548	0.358	0.5	0.931	0.488

Now from value to sequence, other results behind:

SH2 binding enrichment [14]	SH2 binding enrichment [15]	SH2 binding enrichment [16]	Sequence	phosphorylation enrichment [1]	phosphorylation enrichment [2]	phosphorylation enrichment [3]	phosphorylation enrichment [4]	phosphorylation enrichment [5]	phosphorylation enrichment [6]	phosphorylation enrichment [7]	phosphorylation enrichment [8]	phosphorylation enrichment [9]	phosphorylation enrichment [10]	phosphorylation enrichment [11]	phosphorylation enrichment [12]	phosphorylation enrichment [13]
0.663	0.71	0.518	PLDGGYFTLQI [TP53_Y327_E326G]	1.09	1.37	1.2	0.5	1.79	5.04	0.776	0.726	0.679	1.67	0.766	1.75	1.59
1.07	1.3	0.914	PLKALYLQQRP [ATM_Y2969]	0.934	0.576	0.766	0.695	0.954	1.17	0.687	0.822	0.642	0.774	0.764	1.49	0.743
0.8	0.969	0.818	PLKFLYPNIDR [STAT1_Y668_K673R_YF]	0.891	0.55	0.941	0.519	1.31	1.06	0.664	0.796	0.6	0.443	0.602	1.24	0.953
0.663	1.02	0.786	PLRPDYQEPSR [DDR2_Y481]	0.861	0.533	0.581	0.516	1.21	1.02	0.636	0.509	0.57	0.532	0.397	1.66	0.768
1.14	1.36	0.862	PNAYIYVVQLP [L1CAM_Y420_A415P]	1.18	1.31	1.08	2.25	1.53	1.75	1.35	0.941	0.832	1.6	0.47	1.76	1.61
0.878	0.918	0.568	PNRILYGDFRQ [MYH6_Y717]	0.658	5.52	0.538	0.622	0.823	0.862	0.731	6.85	4.43	0.501	0.5	1.02	0.688
1.51	1.31	0.89	PPAPRCHHSAV [LZTR1_Y119_Y119C]	0.842	0.718	1.17	0.566	1.61	1.75	0.701	0.921	1.28	0.839	2.15	2.01	1.21
0.785	0.931	0.278	PPLMLYNPTTF [EGFR_Y270_YF]	0.79	0.863	0.973	1	1.34	1.03	0.891	0.692	1.13	0.731	1.25	1.21	0.857
3.09	1.53	1.54	PQAVRYIFTID [DCX_Y103_G100A_YF]	0.863	0.385	1.29	0.595	1.15	0.806	0.59	0.639	0.673	1.01	0.524	1.76	0.841
32.9	0.83	2.73	PQAVTYAEVKH [LILRB4_Y360_K362E]	0.763	4.89	1.94	0.617	0.872	0.867	1.16	5.58	4.17	0.692	0.804	1.03	0.625
0.631	0.911	0.546	PSAELYSFALP [PDGFRB_Y716_N718Y_YF]	1.51	7.32	10.7	13.2	2.77	1.03	11.8	7.74	6.93	6.2	17.4	1.28	5.36
0.646	1.06	0.473	PSAVAYPKRSQ [MARK3_Y432_V429A]	0.615	0.696	0.544	0.685	0.697	0.577	0.563	0.563	0.441	0.382	0.444	0.818	0.545
1.09	0.769	0.613	PSQRRNVFFFS [PTEN_Y174_Y174N_YF]	0.817	0.591	0.559	0.571	1.31	0.54	0.342	0.924	1.41	1.07	0.493	1.23	0.777
0.576	1.43	1.09	PTFEHYANSTQ [SLC12A3_Y70_YF]	0.742	0.433	0.768	0.771	1.34	0.742	0.993	0.852	0.598	0.818	1.14	1.07	0.988
0.782	1.13	0.658	PTTMTYFPHFD [HBA1_Y43_K41M]	0.859	0.754	0.603	0.802	0.823	1.61	0.577	0.554	0.951	2.97	0.521	1.01	2.32
0.768	0.702	0.56	PTYKHYANSTQ [SLC12A3_Y70_E68K]	0.44	0.422	0.391	0.442	0.39	0.593	0.418	0.542	0.434	0.529	0.448	0.592	0.466
1.43	4.29	0.718	QADVVYVNTQL [MERTK_Y872_I871V]	0.631	0.738	0.66	0.372	0.822	0.728	1.17	0.729	0.729	0.88	3.51	1.8	0.648
0.734	0.791	0.413	QAPPIYLDVLG [NTRK1_Y791_V790I]	0.878	1.71	13.6	3.35	1.31	1.21	3.26	1.46	2.11	3.35	3.26	0.952	2.38
1.05	0.664	0.472	QEALEYFMKQV [PIK3CA_Y1038_M1043V]	0.597	0.463	0.467	0.289	1.18	0.849	0.392	0.382	0.416	0.408	0.402	0.978	0.565
